What was measured:
SB10 transposase [1] = molecular target: T1, SB10 transposase (synthetic Sleeping Beauty transposon); test: fluorescence lifetime; Full-length MST: 50 mM Tris pH 7.5, 5 mM MgCl2, 300 mM NaCl, 2% glycerol, 50 mM Arg-Glu, 1 mM TCEP, 0.1% Triton X-100, 0.1 mg/ml BSA, 30 nM Cy5-DNA, room temp; conditions: protein: recombinant; tags: Ni-NTA purified; label: 5' Cy5 on forward strand (MST)
SB100X transposase [2] = molecular target: T2, SB100X transposase (synthetic Sleeping Beauty transposon, K14R;K33A;R115H;R214D;K215A;E216V;N217Q;M243H;T314N); test: as above; conditions: protein: recombinant; tags: Ni-NTA purified; label: 5' Cy5 on forward strand (MST)
SB10-H19Y [3] = molecular target: T3, SB10-H19Y (synthetic Sleeping Beauty transposon, H19Y); test: as above; conditions: protein: recombinant; tags: Ni-NTA purified; label: 5' Cy5 on forward strand (MST)
[4] = molecular target: T4, H19Y (PAI K14R/H19Y/K33A) (synthetic Sleeping Beauty transposon, UniProt PDB:6URS_1, K14R;H19Y;K33A); test: NMR; HSQC, pH 5.2, 35 C, 1:4.5 protein:DNA; Full-length MST: 50 mM Tris pH 7.5, 5 mM MgCl2, 300 mM NaCl, 2% glycerol, 50 mM Arg-Glu, 1 mM TCEP, 0.1% Triton X-100, 0.1 mg/ml BSA, 30 nM Cy5-DNA, room temp; conditions: protein: recombinant; tags: Ni-NTA purified; label: 5' Cy5 on forward strand (MST)
SB10 transposase [5] = molecular target: T1, SB10 transposase; test: MST; specific (first) transition; Full-length MST: 50 mM Tris pH 7.5, 5 mM MgCl2, 300 mM NaCl, 2% glycerol, 50 mM Arg-Glu, 1 mM TCEP, 0.1% Triton X-100, 0.1 mg/ml BSA, 30 nM Cy5-DNA, room temp; conditions: protein: recombinant; tags: Ni-NTA purified; label: 5' Cy5 on forward strand (MST)
SB100X transposase [6] = molecular target: T2, SB100X transposase; test: as above; conditions: protein: recombinant; tags: Ni-NTA purified; label: 5' Cy5 on forward strand (MST)
SB10 transposase [7] = molecular target: T1, SB10 transposase; test: fluorescence anisotropy; Full-length MST: 50 mM Tris pH 7.5, 5 mM MgCl2, 300 mM NaCl, 2% glycerol, 50 mM Arg-Glu, 1 mM TCEP, 0.1% Triton X-100, 0.1 mg/ml BSA, 30 nM Cy5-DNA, room temp; conditions: protein: recombinant; tags: Ni-NTA purified; label: 5' Cy5 on forward strand (MST)
SB100X transposase [8] = molecular target: T2, SB100X transposase; test: as above; conditions: protein: recombinant; tags: Ni-NTA purified; label: 5' Cy5 on forward strand (MST)
SB10-H19Y [9] = molecular target: T3, SB10-H19Y; test: as above; conditions: protein: recombinant; tags: Ni-NTA purified; label: 5' Cy5 on forward strand (MST)
SB100X-H19Y [10] = molecular target: T5, SB100X-H19Y (synthetic Sleeping Beauty transposon, K14R;H19Y;K33A;R115H;R214D;K215A;E216V;N217Q;M243H;T314N); test: MST; Full-length MST: 50 mM Tris pH 7.5, 5 mM MgCl2, 300 mM NaCl, 2% glycerol, 50 mM Arg-Glu, 1 mM TCEP, 0.1% Triton X-100, 0.1 mg/ml BSA, 30 nM Cy5-DNA, room temp; conditions: protein: recombinant; tags: Ni-NTA purified; label: 5' Cy5 on forward strand (MST)
SB10-H19Y [11] = molecular target: T3, SB10-H19Y; test: as above; conditions: protein: recombinant; tags: Ni-NTA purified; label: 5' Cy5 on forward strand (MST)
SB100X-H19Y [12] = molecular target: T5, SB100X-H19Y; test: fluorescence lifetime; Full-length MST: 50 mM Tris pH 7.5, 5 mM MgCl2, 300 mM NaCl, 2% glycerol, 50 mM Arg-Glu, 1 mM TCEP, 0.1% Triton X-100, 0.1 mg/ml BSA, 30 nM Cy5-DNA, room temp; conditions: protein: recombinant; tags: Ni-NTA purified; label: 5' Cy5 on forward strand (MST)
[13] = molecular target: T4, H19Y (PAI K14R/H19Y/K33A); test: NMR; HSQC and PFG diffusion, pH 5.2, 35 C, 1:5; monomeric complex; Full-length MST: 50 mM Tris pH 7.5, 5 mM MgCl2, 300 mM NaCl, 2% glycerol, 50 mM Arg-Glu, 1 mM TCEP, 0.1% Triton X-100, 0.1 mg/ml BSA, 30 nM Cy5-DNA, room temp; conditions: protein: recombinant; tags: Ni-NTA purified; label: 5' Cy5 on forward strand (MST)
SB100X-H19Y [14] = molecular target: T5, SB100X-H19Y; test: fluorescence anisotropy; Full-length MST: 50 mM Tris pH 7.5, 5 mM MgCl2, 300 mM NaCl, 2% glycerol, 50 mM Arg-Glu, 1 mM TCEP, 0.1% Triton X-100, 0.1 mg/ml BSA, 30 nM Cy5-DNA, room temp; conditions: protein: recombinant; tags: Ni-NTA purified; label: 5' Cy5 on forward strand (MST)
[15] = molecular target: T4, H19Y (PAI K14R/H19Y/K33A); test: NMR; HSQC and PFG diffusion, pH 5.2, 35 C; monomeric complex; Full-length MST: 50 mM Tris pH 7.5, 5 mM MgCl2, 300 mM NaCl, 2% glycerol, 50 mM Arg-Glu, 1 mM TCEP, 0.1% Triton X-100, 0.1 mg/ml BSA, 30 nM Cy5-DNA, room temp; conditions: protein: recombinant; tags: Ni-NTA purified; label: 5' Cy5 on forward strand (MST)
SB100X-H19Y [16] = molecular target: T5, SB100X-H19Y; test: MST; nonspecific; Full-length MST: 50 mM Tris pH 7.5, 5 mM MgCl2, 300 mM NaCl, 2% glycerol, 50 mM Arg-Glu, 1 mM TCEP, 0.1% Triton X-100, 0.1 mg/ml BSA, 30 nM Cy5-DNA, room temp; conditions: protein: recombinant, tags: Ni-NTA purified
SB10 transposase [17] = molecular target: T1, SB10 transposase; test: MST; nonspecific, monophasic; Full-length MST: 50 mM Tris pH 7.5, 5 mM MgCl2, 300 mM NaCl, 2% glycerol, 50 mM Arg-Glu, 1 mM TCEP, 0.1% Triton X-100, 0.1 mg/ml BSA, 30 nM Cy5-DNA, room temp; conditions: protein: recombinant; tags: Ni-NTA purified; label: Cy5 (5' forward strand)
SB100X transposase [18] = molecular target: T2, SB100X transposase; test: as above; conditions: protein: recombinant; tags: Ni-NTA purified; label: Cy5 (5' forward strand)

B1: DR-core (dsDNA)
DNA 1: TCGGAAGTTTACATACAC
DNA 2: GTGTATGTAAACTTCCGA
With B1 the Kd (SB10 transposase [1]) was 29.4 ± 2 nM, the Kd (SB100X transposase [2]) was 31.6 ± 3.4 nM and the Kd (SB10-H19Y [3]) was 45.4 ± 4.8 nM. The binding result [4] was “binds”, the Kd (SB10 transposase [5]) was 25.3 ± 0.9 nM and the Kd (SB100X transposase [6]) was 17.3 ± 1.1 nM. For the same binder, the Kd (SB10 transposase [7]) was 37 ± 4 nM, the Kd (SB100X transposase [8]) was 35.1 ± 6.6 nM and the Kd (SB10-H19Y [9]) was 51.3 ± 8.3 nM. The Kd (SB100X-H19Y [10]) was 31.2 ± 11.1 nM and the Kd (SB10-H19Y [11]) was 31.1 ± 2.3 nM.

B2: Li (dsDNA)
DNA 1: TCCAGTGGGTCAGAAGTTTACATACACTAAGT
DNA 2: ACTTAGTGTATGTAAACTTCTGACCCACTGGA
With B2 the Kd (SB10 transposase [1]) was 17.2 ± 0.8 nM, the Kd (SB100X-H19Y [12]) was 16.2 ± 2.3 nM and the Kd (SB100X transposase [2]) was 25.9 ± 2.3 nM. The Kd (SB10-H19Y [3]) was 16 ± 0.7 nM, the binding result [13] was “binds” and the Kd (SB10 transposase [5]) was 17.3 ± 1.2 nM. It also gave a Kd (SB100X transposase [6]) of 23.6 ± 2.2 nM, a Kd (SB10 transposase [7]) of 19.3 ± 2.8 nM and a Kd (SB100X-H19Y [14]) of 16 ± 3.2 nM. For the same binder, the Kd (SB100X transposase [8]) was 27.6 ± 4.9 nM, the Kd (SB10-H19Y [9]) was 18.2 ± 2.2 nM and the Kd (SB100X-H19Y [10]) was 10.3 ± 0.8 nM. The Kd (SB10-H19Y [11]) was 10.2 ± 0.9 nM.

B3: Lo (dsDNA)
DNA 1: CAGTTGAAGTCGGAAGTTTACATACACTTAAG
DNA 2: CTTAAGTGTATGTAAACTTCCGACTTCAACTG
With B3 the Kd (SB10 transposase [1]) was 23 ± 2.2 nM, the Kd (SB100X-H19Y [12]) was 20.6 ± 0.8 nM and the Kd (SB100X transposase [2]) was 16 ± 2.6 nM. For the same binder, the Kd (SB10-H19Y [3]) was 13.2 ± 1.1 nM, the binding result [15] was “binds” and the Kd (SB10 transposase [5]) was 16.6 ± 2.6 nM. It also gave a Kd (SB100X transposase [6]) of 23 ± 1.9 nM, a Kd (SB10 transposase [7]) of 23.9 ± 2.8 nM and a Kd (SB100X-H19Y [14]) of 17.3 ± 2.2 nM. It also gave a Kd (SB100X transposase [8]) of 13.7 ± 2.8 nM, a Kd (SB10-H19Y [9]) of 9.73 ± 2.5 nM and a Kd (SB100X-H19Y [10]) of 29.7 ± 3.5 nM. For the same binder, the Kd (SB10-H19Y [11]) was 11.6 ± 1.8 nM.

B4: NS1 (dsDNA)
DNA 1: ACCTTCCTCCGCAATACTCCCCCAGGT
DNA 2: ACCTGGGGGAGTATTGCGGAGGAAGGT
For B4, the Kd (SB100X-H19Y [16]; label: Cy5 (5' forward strand)) was 2.71 ± 0.21 µM, the Kd (SB10 transposase [17]) was 2600 ± 160 nM and the Kd (SB100X transposase [18]) was 560 ± 40 nM.

B5: NS2 (dsDNA)
DNA 1: CGGTCTTTCCGTCTT
DNA 2: AAGACGGAAAGACCG
Binder B5 has a Kd (SB100X-H19Y [16]) of 3.43 ± 0.24 µM.
